The labels stand for the following.
T1: TNF-R1 (a protein having the amino acid sequence, Accession No. M58286 registered at GENBANK) (UniProt P19438 30-211, limits assumed)
T1 construct: also called TNF receptor having a molecular weight of 55 kilo daltons
T1 sequence (looked up): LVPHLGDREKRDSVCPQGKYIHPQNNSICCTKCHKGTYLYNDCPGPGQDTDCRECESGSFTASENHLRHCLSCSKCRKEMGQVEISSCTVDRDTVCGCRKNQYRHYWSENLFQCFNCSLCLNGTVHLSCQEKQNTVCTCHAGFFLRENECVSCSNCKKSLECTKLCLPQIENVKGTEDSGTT

T2: TNF-R2 (a protein having the amino acid sequence, Accession No. M55994 registered at GENBANK) (UniProt P20333 23-257, limits assumed)
T2 construct: also called TNF receptor with 75 kilo daltons
T2 sequence (looked up): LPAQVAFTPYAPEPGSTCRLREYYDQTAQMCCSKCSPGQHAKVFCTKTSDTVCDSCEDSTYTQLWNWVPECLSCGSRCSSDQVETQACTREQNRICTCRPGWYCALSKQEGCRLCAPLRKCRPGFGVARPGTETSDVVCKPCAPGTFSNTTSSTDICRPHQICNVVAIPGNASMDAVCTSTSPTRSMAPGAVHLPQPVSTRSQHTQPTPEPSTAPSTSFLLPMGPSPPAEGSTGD

B1: lysine-replaced human TNF (ligand)
chain: VRSSSRTPSDMPVAHVVANPQAEGQLQWLNRRANALLANGVELRDNQLVVPSEGLYLIYSQVLFSGQGCPSTHVLLTHTISRIAVSYQTPVNLLSAIRSPCQRETPEGAEANPWYEPIYLGGVFQLEPGDRLSAEINRPDYLDFAESGQVYFGIIAL
notes: Parent of all clones; also called Lysine-replaced TNF; lysine-replaced mutant
B2: TNF mutant protein of clone No. 5 (ligand)
chain: B1 chain with L29R, R31S, R32H, A145S, E146G, S147T
notes: Mutant of lysine-replaced TNF, made in E. coli
B3: TNF mutant protein of clone No. 2 (ligand)
chain: B1 chain with L29T, R31G, R32Y
notes: as for B2
B4: TNF mutant protein of clone No. 30 (ligand)
chain: B1 chain with A84T, V85P, S86G, Q88P, T89S
notes: as for B2
B5: TNF mutant protein of clone No. 27 (ligand)
chain: B1 chain with A84T, V85P, S86A, Q88P, T89R
notes: as for B2
B6: TNF mutant protein of clone No. 34 (ligand)
chain: B1 chain with A84S, V85A, S86D, Q88P, T89H
notes: as for B2
B7: TNF mutant protein of clone No. 4 (ligand)
chain: B1 chain with L29K, R31A, R32G, E146S, S147T
notes: as for B2
B8: TNF mutant protein of clone No. 20 (ligand)
chain: B1 chain with A84S, V85S, S86A, Q88A, T89S
notes: as for B2
B9: TNF mutant protein of clone No. 14 (ligand)
chain: B1 chain with E146N, S147D
notes: as for B2
B10: TNF mutant protein of clone No. 31 (ligand)
chain: B1 chain with A84S, V85K, S86T, Q88S, T89H
notes: as for B2
B11: TNF mutant protein of clone No. 15 (ligand)
chain: B1 chain with A84T, V85N, S86H, Q88S, T89N
B12: TNF mutant protein of clone No. 7 (ligand)
chain: B1 chain with L29H, R31N, R32T, A145D, E146S, S147N
notes: as for B2
B13: TNF mutant protein of clone No. 9 (ligand)
chain: B1 chain with L29S, R31P, R32M, E146N, S147P
notes: as for B2
B14: TNF mutant protein of clone No. 8 (ligand)
chain: B1 chain with L29R, R31E, R32H, A145N, E146N, S147A
notes: as for B2
B15: TNF mutant protein of clone No. 16 (ligand)
chain: B1 chain with A84S, V85S, S86T, Q88P, T89D
notes: as for B2
B16: TNF mutant protein of clone No. 32 (ligand)
chain: B1 chain with A84T, V85D, S86R, Q88S, T89S
notes: as for B2
B17: TNF mutant protein of clone No. 33 (ligand)
chain: B1 chain with A84N, V85H, S86R, T89D
notes: as for B2
B18: TNF mutant protein of clone No. 26 (ligand)
chain: B1 chain with A84S, V85S, S86H, Q88R, T89F
notes: as for B2
B19: TNF mutant protein of clone No. 25 (ligand)
chain: B1 chain with A84S, V85K, S86T, Q88S, T89H
notes: as for B2

Positions count from the first letter of the chain named.

The target in the first assay is T1, TNF-R1 (a protein having the amino acid …). Nature of the assay: SPR (BIACORE 2000), receptor on sensor tip; grade 3 = 0.5 to 2 times that of recombinant TNF-α. The text has this: (§1) Using the above detector based on surface plasmon resonance effect again, the resulting clones binding to TNF-R1 (or TNF-R2) were subjected to the remaining sensor tip conjugated with TNF-R2 (or TNF-R1) to measure receptor binding affinity and select clones having a variation of receptor binding affinity. […] The resulting DNAs were digested with restrict enzymes NdeI and BamHI to obtain DNA fragments. The resulting DNA fragments were introduced into a plasmid vector containing T7 promoter region, T7 terminator region, ampicillin resistant gene region and ColE1/Ori region (product name “pET-3a”, manufactured by “Novagen®” (EMD Biosciences, Inc.)) at the position of the above restriction sites. The resulting plasmid was introduced into E. coli BL21DE3 strain to obtain a transformed E. coli for producing the TNF mutant proteins. The obtained transformed E. coli was cultured according to usual method and centrifuged to collect E. coli pellet. The resulting pellet was washed twice with TES buffer (pH 8.0) (20 mM Tris-HCl, 10 mM ethylene diamine tetraacetic acid and 0.5 M sodium chloride) and admixed with TES buffer (pH 8.0) containing 0.2 mg/ml lysozyme. The resulting suspension was sonicated according to usual manner, and centrifuged to collect a precipitate containing the produced TNF mutant protein. The resulting precipitate was treated three times in a manner of admixing with TES buffer containing 1 (w/w) % Triton X-100, removed from supernatant by centrifuging, admixed with 50 mM Tris-HCl (pH 7.0) containing 8 M guanidine hydrochloride and 50 mM dithiothreitol, with stirring for 16 hours at ambient temperature under shielded condition, and centrifuged to collect a supernatant. The resulting supernatant was gently admixed with 100 time volumes of a aqueous solution containing 1 M Tris, 0.9 (w/v) % sodium chloride, 0.4 M L-arginine chloride, 2.5 mM reduced glutathione, 0.5 mM oxidized glutathione and 0.05 (w/v) % Tween 20, and kept at 4° C. for 16 hours.
As for B1, the “binding affinity relative to recombinant TNF-α” value was in the range of 0.5 to 2 fold.
The same measure, in the same setting: the figure for B2 is 0.5 to 2 fold.
Still for that read-out and setting: for B3 the value was 0.5 to 2 fold.
Same read-out and setting: for B4 the value was 0.5 to 2 fold.
In the case of B5, the “binding affinity relative to recombinant TNF-α” value was 0.5 to 2 fold.
The same measure, in the same setting: for B6 the value was 0.5 to 2 fold; for B7, 0.5 to 2 fold; for B8, 0.5 to 2 fold.

Another assay concerns the target T2, TNF-R2 (a protein having the amino acid …). The assay is described as above.
Description: as §1
On to B1, for which the “binding affinity relative to recombinant TNF-α” value lay in the range of 0.5 to 2 fold.
Turning to B9, the “binding affinity relative to recombinant TNF-α” value was 0.5 to 2 fold.
Regarding B10, the “binding affinity relative to recombinant TNF-α” value fell in the range of 0.5 to 2 fold.

For a further assay, the target named is T1, TNF-R1 (a protein having the amino acid …). As to the kind of experiment: SPR (BIACORE 2000), receptor on sensor tip; grade 2 = 0.5 to 0.1 time that of recombinant TNF-α.
Description: as §1
(In general: In SPR one partner is held on a chip, and binding of the other changes the refractive index at the surface.)
Regarding B11, the “binding affinity relative to recombinant TNF-α” value was in the range of 0.1 to 0.5 fold.
The same measure, in the same setting: the figure for B9 is 0.1 to 0.5 fold; for B12 it is 0.1 to 0.5 fold; for B13 it is 0.1 to 0.5 fold.
On the same count and under the same terms, the figure for B14 is 0.1 to 0.5 fold.

A further assay has as its target T2, TNF-R2 (a protein having the amino acid …). Described as above.
Description: as §1
For B3, the “binding affinity relative to recombinant TNF-α” value fell in the range of 0.1 to 0.5 fold.
Same read-out and setting: the figure for B15 is 0.1 to 0.5 fold; for B4 it is 0.1 to 0.5 fold.
Still for that read-out and setting: the figure for B5 is 0.1 to 0.5 fold.
The same measure, in the same setting: the figure for B16 is 0.1 to 0.5 fold.
As to B6, the “binding affinity relative to recombinant TNF-α” value was 0.1 to 0.5 fold.
Turning to B8, the “binding affinity relative to recombinant TNF-α” value lay within 0.1 to 0.5 fold.

For another assay the target is unchanged. Nature of the assay: SPR (BIACORE 2000), receptor on sensor tip; grade 1 = 0.001 to 0.1 time that of recombinant TNF-α.
Description: as §1
For the molecule B11, the “binding affinity relative to recombinant TNF-α” value lay within 0.001 to 0.1 fold.
As to B12, the “binding affinity relative to recombinant TNF-α” value fell in the range of 0.001 to 0.1 fold.
On to B13, for which the “binding affinity relative to recombinant TNF-α” value was 0.001 to 0.1 fold.
Still for that read-out and setting: for B17 the value was 0.001 to 0.1 fold; for B18, 0.001 to 0.1 fold.
B19: the “binding affinity relative to recombinant TNF-α” value was 0.001 to 0.1 fold.
Same read-out and setting: the figure for B14 is 0.001 to 0.1 fold.

In another assay the target is T1, TNF-R1 (a protein having the amino acid …). As to the kind of experiment: SPR (BIACORE 2000), receptor on sensor tip; grade 4 = two times or more that of recombinant TNF-α.
Description: as §1
In the case of B15, the “binding affinity relative to recombinant TNF-α” value is at least 2 fold.
Same read-out and setting: the figure for B16 is at least 2 fold; for B17 it is at least 2 fold; for B18 it is at least 2 fold.
Same read-out and setting: for B19 the value was at least 2 fold; for B10, at least 2 fold.

A further assay concerns the target T2, TNF-R2 (a protein having the amino acid …). As to the kind of experiment: SPR (BIACORE 2000), receptor on sensor tip; grade 0 = weakened to 0.001 or less of that of recombinant TNF-α.
Description: as §1
Turning to B2, the “binding affinity relative to recombinant TNF-α (grade)” value was ≤ 0.001 times that of recombinant TNF-α.
The same measure, in the same setting: for B7 the value was ≤ 0.001 times that of recombinant TNF-α.

The values above are taken from patent publication US20100222258A1 (KABUSHIKI KAISHA HAYASHIBARA SEIBUTSU KAGAKU KENKYUJO, published 2010).
